Results as given in patent US9931433B2, “Time-controlled glucose releasing hydrogels and applications thereof” (Centre National de la Recherche Scientifique (CNRS), priority 2014, dated 2018).

Assay: Stability of the kit components after storage
Assay type: physicochemical
Settings: 14 days storage
From the text: The mechanical properties (storage and loss moduli G′ and G″) are identical at D0, D7 or D21 storage.
The activity of the enzyme AMG was preserved after 14 days storage allowing a long term storage of the kit components.

With glucan 1,4 α-glucosidase [AMG] the “activity of the enzyme after storage” value was “preserved”.
